B1: CPEB3 Ribozyme (parent)
chain: GGGGGCCACAGCAGAAGCGUUCACGUCGCGGCCCCUGUCAGAUUCUGGUGAAUCUGCGAAUUCUGCUGU

Variants of B1 are the subject of this series. In words: self-cleavage, relative activity (ratio to wild type); higher = more cleavage; co-transcriptional.
As for GGGGGCCACAGCAGAAGCGUUCACGUCGCGGCCCCUGUCAGAUUCUGGUGAAUCGGCGAGUUCUGCUGU [U55G A60G], the self-cleavage was 0.552.
With GGGGGCCACAGCAGAAGCGUUCACGUCGCGGCCCCUGUCAGAUUCUGGUGAAUCGGCGAUUUCUGCUGU [U55G A60U] the figure was 0.291; with GGGGGCCACAGCAGAAGCGUUCACGUCGCGGCCCCUGUCAGAUUCUGGUGAAUCGGCGAAUUCUGCUGU [U55G], 0.881.
To GGGGGCCACAGCAGAAGCGUUCACGUCGCGGCCCCUGUCAGAUUCUGGUGAAUCCGCGAAUUCUGCUGU [U55C] belongs 0.937; to GGGGGCCACAGCAGAAGCGUUCACGUCGCGGCCCCUGUCAGAUUCUGGUGAAUCAGCGAAUUCUGCGGU [U55A U67G], 0.963; to GGGGGCCACAGCAGAAGCGUUCACGUCGCGGCCCCUGUCAGAUUCUGGUGAAUCAGCGAAUUCUGCAGU [U55A U67A], 0.921.
To GGGGGCCACAGCAGAAGCGUUCACGUCGCGGCCCCUGUCAGAUUCUGGUGAAUCGGAGAAUUCUGCUGU [U55G C57A] belongs 0.317; to GGGGGCCACAGCAGAAGCGUUCACGUCGCGGCCCCUGUCAGAUUCUGGUGAAUCCGUGAAUUCUGCUGU [U55C C57U], 0.295.
For GGGGGCCACAGCAGAAGCGUUCACGUCGCGGCCCCUGUCAGAUUCUGGUGAAUCCGGGAAUUCUGCUGU [U55C C57G], the self-cleavage was 0.322.
With GGGGGCCACAGCAGAAGCGUUCACGUCGCGGCCCCUGUCAGAUUCUGGUGAAUCAGCGAAUUCUGCUCU [U55A G68C] the figure was 1.01; with GGGGGCCACAGCAGAAGCGUUCACGUCGCGGCCCCUGUCAGAUUCUGGUGAAUCCACGAAUUCUGCUGU [U55C G56A], 0.996.
To GGGGGCCACAGCAGAAGCGUUCACGUCGCGGCCCCUGUCAGAUUCUGGUGAAUCCCCGAAUUCUGCUGU [U55C G56C] belongs 0.583.
To GGGGGCCACAGCAGAAGCGUUCACGUCGCGGCCCCUGUCAGAUUCUGGUGAAUCCGCGAAUCCUGCUGU [U55C U62C] belongs 0.592.
In the case of GGGGGCCACAGCAGAAGCGUUCACGUCGCGGCCCCUGUCAGAUUCUGGUGAAUCCGCGAAUACUGCUGU [U55C U62A], the self-cleavage is 0.445.
With GGGGGCCACAGCAGAAGCGUUCACGUCGCGGCCCCUGUCAGAUUCUGGUGAAUCCGCGAAUUCAGCUGU [U55C U64A] the figure was 0.567; with GGGGGCCACAGCAGAAGCGUUCACGUCGCGGCCCCUGUCAGAUUCUGGUGAAUCAGCGAAUUUUGCUGU [U55A C63U], 0.736; with GGGGGCCACAGCAGAAGCGUUCACGUCGCGGCCCCUGUCAGAUUCUGGUGAAUCAGCGAAUUCUGCUGG [U55A U69G], 1.
For GGGGGCCACAGCAGAAGCGUUCACGUCGCGGCCCCUGUCAGAUUCUGGUGAAUCGGCGAAUUCUGGUGU [U55G C66G], the self-cleavage turned out to be 0.451.
To GGGGGCCACAGCAGAAGCGUUCACGUCGCGGCCCCUGUCAGAUUCUGGUGAAUCCGCGAAUUCUGCUAU [U55C G68A] belongs 0.961; to GGGGGCCACAGCAGAAGCGUUCACGUCGCGGCCCCUGUCAGAUUCUGGUGAAUCCGCGAAUUCUGCAGU [U55C U67A], 0.932; to GGGGGCCACAGCAGAAGCGUUCACGUCGCGGCCCCUGUCAGAUUCUGGUGAAUCCGCGAAUUCUGCGGU [U55C U67G], 0.826.
To GGGGGCCACAGCAGAAGCGUUCACGUCGCGGCCCCUGUCAGAUUCUGGUGAAUCAGCGAAUUCAGCUGU [U55A U64A] belongs 0.532; to GGGGGCCACAGCAGAAGCGUUCACGUCGCGGCCCCUGUCAGAUUCUGGUGAAUCAGCGAAUCCUGCUGU [U55A U62C], 0.67.
With GGGGGCCACAGCAGAAGCGUUCACGUCGCGGCCCCUGUCAGAUUCUGGUGAAUCAGCGAAUACUGCUGU [U55A U62A] the figure was 0.489; with GGGGGCCACAGCAGAAGCGUUCACGUCGCGGCCCCUGUCAGAUUCUGGUGAAUCCGCGAAGUCUGCUGU [U55C U61G], 0.434.
Take GGGGGCCACAGCAGAAGCGUUCACGUCGCGGCCCCUGUCAGAUUCUGGUGAAUCAGCGAACUCUGCUGU [U55A U61C]: the self-cleavage was 0.445.
To GGGGGCCACAGCAGAAGCGUUCACGUCGCGGCCCCUGUCAGAUUCUGGUGAAUCGUCGAAUUCUGCUGU [U55G G56U] belongs 0.817; to GGGGGCCACAGCAGAAGCGUUCACGUCGCGGCCCCUGUCAGAUUCUGGUGAAUCGCCGAAUUCUGCUGU [U55G G56C], 0.729; to GGGGGCCACAGCAGAAGCGUUCACGUCGCGGCCCCUGUCAGAUUCUGGUGAAUCCGCGAUUUCUGCUGU [U55C A60U], 0.388.
With GGGGGCCACAGCAGAAGCGUUCACGUCGCGGCCCCUGUCAGAUUCUGGUGAAUCCGCGAGUUCUGCUGU [U55C A60G] the figure was 0.602; with GGGGGCCACAGCAGAAGCGUUCACGUCGCGGCCCCUGUCAGAUUCUGGUGAAUCAGCAAAUUCUGCUGU [U55A G58A], 0.927.
With GGGGGCCACAGCAGAAGCGUUCACGUCGCGGCCCCUGUCAGAUUCUGGUGAAUCGGCGAAUUUUGCUGU [U55G C63U] the figure was 0.626.
With GGGGGCCACAGCAGAAGCGUUCACGUCGCGGCCCCUGUCAGAUUCUGGUGAAUCGGCGUAUUCUGCUGU [U55G A59U], the self-cleavage is 0.394.
With GGGGGCCACAGCAGAAGCGUUCACGUCGCGGCCCCUGUCAGAUUCUGGUGAAUCCGCGAAUUCUACUGU [U55C G65A] the figure was 0.588; with GGGGGCCACAGCAGAAGCGUUCACGUCGCGGCCCCUGUCAGAUUCUGGUGAAUCCGCGAAUUCUUCUGU [U55C G65U], 0.495; with GGGGGCCACAGCAGAAGCGUUCACGUCGCGGCCCCUGUCAGAUUCUGGUGAAUCAGCGAAUUCUCCUGU [U55A G65C], 0.491.
To GGGGGCCACAGCAGAAGCGUUCACGUCGCGGCCCCUGUCAGAUUCUGGUGAAUCAGCGAAUUCUUCUGU [U55A G65U] belongs 0.421; to GGGGGCCACAGCAGAAGCGUUCACGUCGCGGCCCCUGUCAGAUUCUGGUGAAUCCGCGCAUUCUGCUGU [U55C A59C], 0.464; to GGGGGCCACAGCAGAAGCGUUCACGUCGCGGCCCCUGUCAGAUUCUGGUGAAUCCGCGGAUUCUGCUGU [U55C A59G], 0.967.

Source of the values: the RNAGym collection of RNA variant scans (doi:10.7554/elife.80360).
